# Data published in patent publication US20190359723A1 (CARSGEN THERAPEUTICS, published 2019).
# T1: Murine IL-13RA2 (murine, UniProt O88786 22-334, limits assumed)
# T1 construct: Bought recombinant protein; coated on the ELISA plate at 5 ug/ml
# T1 sequence (looked up): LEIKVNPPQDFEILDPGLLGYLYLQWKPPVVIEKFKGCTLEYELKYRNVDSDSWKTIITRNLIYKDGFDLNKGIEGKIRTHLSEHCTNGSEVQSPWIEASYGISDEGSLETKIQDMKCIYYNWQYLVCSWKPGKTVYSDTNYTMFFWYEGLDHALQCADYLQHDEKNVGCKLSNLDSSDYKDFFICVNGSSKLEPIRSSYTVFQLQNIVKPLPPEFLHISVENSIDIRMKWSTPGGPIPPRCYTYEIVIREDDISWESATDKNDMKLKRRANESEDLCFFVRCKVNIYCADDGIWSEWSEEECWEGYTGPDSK
# Legend:
# IL-13RA2 huFc [1] = target: T2, IL-13RA2 huFc (human); test: Biacore, induced supernatant of the scFv clone; parent 32H4
# T2 construct: Expressed in 293F cells, purified on protein A; also called human IL13RA2; recombinant IL-13RA2
# IL-13RA2 huFc [2] = target: T2, IL-13RA2 huFc; test: SPR (Biacore), induced scFv supernatant; column head: Dissociation constant Kd(S-1)
# IL-13RA2 huFc [3] = target: T2, IL-13RA2 huFc; test: SPR (Biacore T200), nickel-purified scFv
# Procedure: IL-13RA2 huFc was coated on the CMS chip by amino coupling, coated to about 500 RU, and the gradiently diluted antibodies were passed through the antigen-coated channel at a flow rate of 30 ul/min as a mobile phase. The running buffer was HBS-N and the temperature was 25° C. The experimental data was analyzed by BIAevaluation 3.2 and the kinetic curves were fitted using a 1:1 langmuir model.
# Affinity purification was performed using a nickel column, affinity was measured using biacore T200, and the association and dissociation constants of the affinity matured antibodies are shown as in FIG. 10A.
# Murine IL-13RA2 = target: T1, Murine IL-13RA2; test: ELISA by the method of Example 3, antibody concentration not given; bars assigned by their order in the legend
# Procedure: (§1) The species specificity of antibodies 31C2 and 32H4 was determined by standard ELISA. Murine IL-13RA2 was purchased from Sino Biological Inc. The ELISA plate was coated with 100 ul of 5 ug/ml murine IL-13RA2 per well at 4° C. overnight. The coated ELISA plate was washed with PBS three times. 200 ul solution of 2% skim milk powder in PBS per well was added for blocking at room temperature for 1 hour. The plate was washed with PBS three times. The gradiently diluted antibodies with a starting concentration of 10 μg/ml, 3-fold serially diluted, were added and incubated at room temperature for 1 hr. The mixture was washed with PBST three times and washed with PBS three times. HRP-labeled goat anti-human Fc was added and incubated at room temperature for 1 hour. The mixture was washed with PBST three times and washed with PBS three times. After TMB was added for color development for 15 minutes, and the reaction was stopped by the addition of sulfuric acid, and read on a microplate reader.
# (§2) The specificity of the antibodies 5D7, 2C7, 5G3, 2D4, 2D3 and 1B11 was determined by standard ELISA following the method of Example 3. The results were shown as in FIG. 10B.
# IL-13RA1_huFc = target: T3, IL-13RA1_huFc (human); test: as above
# T3 construct: IL-13RA1 extracellular segment, 'GS', Fc segment Asp104-Lys330 of the human IgG1 heavy chain constant region; also called human IL13RA1
# Procedure: as §1, §2
# IL-13RA2 huFc [4] = target: T2, IL-13RA2 huFc; test: Biacore, induced supernatant of the scFv clone; parent 31C2
# T2 sequence (chain, as listed by the source limits assumed): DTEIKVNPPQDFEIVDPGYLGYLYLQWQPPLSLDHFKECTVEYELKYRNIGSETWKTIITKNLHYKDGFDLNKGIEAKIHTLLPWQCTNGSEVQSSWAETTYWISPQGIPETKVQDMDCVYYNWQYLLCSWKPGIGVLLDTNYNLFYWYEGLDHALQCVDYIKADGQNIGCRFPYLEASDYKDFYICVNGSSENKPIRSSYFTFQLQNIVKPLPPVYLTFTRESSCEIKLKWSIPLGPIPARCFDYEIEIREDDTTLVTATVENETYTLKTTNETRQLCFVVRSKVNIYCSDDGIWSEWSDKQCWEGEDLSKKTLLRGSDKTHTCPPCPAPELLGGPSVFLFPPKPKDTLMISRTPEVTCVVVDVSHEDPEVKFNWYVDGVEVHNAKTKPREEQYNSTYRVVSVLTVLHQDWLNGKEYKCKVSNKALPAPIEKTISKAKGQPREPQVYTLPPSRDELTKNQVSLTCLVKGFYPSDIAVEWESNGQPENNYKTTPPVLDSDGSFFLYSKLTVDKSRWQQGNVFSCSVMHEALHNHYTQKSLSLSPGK
# T3 sequence (chain, as listed by the source limits assumed): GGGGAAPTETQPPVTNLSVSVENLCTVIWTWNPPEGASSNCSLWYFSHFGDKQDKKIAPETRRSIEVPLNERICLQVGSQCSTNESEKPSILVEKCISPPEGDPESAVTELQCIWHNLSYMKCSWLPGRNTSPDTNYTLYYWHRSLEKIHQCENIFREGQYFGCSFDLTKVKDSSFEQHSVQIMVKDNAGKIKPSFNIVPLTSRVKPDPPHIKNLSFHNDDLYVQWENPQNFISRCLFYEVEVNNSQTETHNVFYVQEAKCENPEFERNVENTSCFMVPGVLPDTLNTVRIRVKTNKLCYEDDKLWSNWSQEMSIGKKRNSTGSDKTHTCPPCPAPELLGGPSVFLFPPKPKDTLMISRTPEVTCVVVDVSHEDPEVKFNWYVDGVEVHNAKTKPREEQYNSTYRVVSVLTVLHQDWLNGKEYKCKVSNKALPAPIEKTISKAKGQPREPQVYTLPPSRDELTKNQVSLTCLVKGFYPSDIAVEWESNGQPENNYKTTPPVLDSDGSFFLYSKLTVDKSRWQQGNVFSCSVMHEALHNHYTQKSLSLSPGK
Binder,fold lower dissociation constant Kd than the parent clone (IL-13RA2 huFc [1]) [times],koff (IL-13RA2 huFc [2]) [s⁻¹],Kd (IL-13RA2 huFc [3]) [nM],koff (IL-13RA2 huFc [3]) [s⁻¹],kon (IL-13RA2 huFc [3]) [M⁻¹ s⁻¹],binding result (Murine IL-13RA2),binding result (IL-13RA1_huFc),fold lower dissociation constant Kd than the parent clone (IL-13RA2 huFc [4]) [times]
"5D7 (scFv) (scFv, also called clone 5D7) scFv: EVQLLESGGGLVQPGGSLRLSCAASGFTFSNYAMSWVRQAPGKGLEWVSGIRSSGGRTFYADSVKGRFTISRDNSKNTLYLQMNSLRAEDTAVYYCARVAFSGSFDYWGQGTLVTVSSGGGGSGGGGSGGGGSDIQMTQSPSTLSASVGDRVTITCRASQSISSWLAWYQQKPGKAPKLLIYDASSLESGVPSRFSGSGSGTEFTLTISSLQPDDFATYYCQQRNRYPPTFGQGTKVEIK",> 10,0.00154,5.4,0.000443,82200,–,–,–
"5G3 (scFv) (scFv, also called clone 5G3) scFv: EVQLLESGGGLVQPGGSLRLSCAASGFTFSSYVLSWVRQAPGKGLEWVSAIRGSAGNTYYADSVKGRFTISRDNSKNTLYLQMNSLRAEDTAVYYCARVAFSGSFDYWGQGTLVTVSSGGGGSGGGGSGGGGSDIQMTQSPSTLSASVGDRVTITCRASQSISSWLAWYQQKPGKAPKLLIYDASSLESGVPSRFSGSGSGTEFTLTISSLQPDDFATYYCQQRNRYPPTFGQGTKVEIK",> 10,0.000941,8.34,0.000586,70300,–,–,–
"1B11 (scFv) (scFv, also called clone 1B11) scFv: EVQLLESGGGLVQPGGSLRLSCAASGFTFSRDALNWVRQAPGKGLEWVSAISGSGGSTFYADSVKGRFTISRDNSKNTLYLQMNSLRAEDTAVYYCAKVRYGWGAGAFDYWGQGTLVTVSSGGGGSGGGGSGGGGSDIQMTQSPSTLSASVGDRVTITCRASQSISSWLAWYQQKPGKAPKLLIYDASSLESGVPSRFSGSGSGTEFTLTISSLQPDDFATYYCQQYDTYPPITFGQGTKVEIK",–,0.000736,17.5,0.000803,46000,binds,no binding,> 10
"2D4 (scFv) (scFv, also called clone 2D4) scFv: EVQLLESGGGLVQPGGSLRLSCAASGFTFRKYAMGWVRQAPGKGLEWVSGISGSVGSTYYADSVKGRFTISRDNSKNTLYLQMNSLRAEDTAVYYCAKVRYGWGAGAFDYWGQGTLVTVSSGGGGSGGGGSGGGGSDIQMTQSPSTLSASVGDRVTITCRASQSISSWLAWYQQKPGKAPKLLIYDASSLESGVPSRFSGSGSGTEFTLTISSLQPDDFATYYCQQYDTYPPITFGQGTKVEIK",–,0.000837,8.92,0.000745,83500,binds,no binding,> 10
